Measured values reported in patent publication US20250026787A1, “PEPTIDES AND METHODS FOR REDUCING SKIN PIGMENTATION” (Glo Pharma, Inc., priority 2021, published 2025).
Square brackets hold non-standard residues; d marks the D form. Ends that are not written are not given here.

B1: SEQ ID NO: 40 (peptide)
peptide: A[dL][dF]R[dW]FKPV-NH2
modifications: N-terminus assumed
SMILES: CC(C)C[C@@H](NC(=O)[C@H](C)N)C(=O)N[C@H](Cc1ccccc1)C(=O)N[C@@H](CCCNC(=N)N)C(=O)N[C@H](Cc1c[nH]c2ccccc12)C(=O)N[C@@H](Cc1ccccc1)C(=O)N[C@@H](CCCCN)C(=O)N1CCC[C@H]1C(=O)N[C@H](C(N)=O)C(C)C
B2: SEQ ID NO: 35 (peptide)
peptide: MV[dF][dR][dW]FKPV-NH2
modifications: N-terminus assumed
SMILES: CSCC[C@H](N)C(=O)N[C@H](C(=O)N[C@H](Cc1ccccc1)C(=O)N[C@H](CCCNC(=N)N)C(=O)N[C@H](Cc1c[nH]c2ccccc12)C(=O)N[C@@H](Cc1ccccc1)C(=O)N[C@@H](CCCCN)C(=O)N1CCC[C@H]1C(=O)N[C@H](C(N)=O)C(C)C)C(C)C

Biological target: Human recombinant melanocortin MC1 receptor (human) (UniProt Q01726)
Sequence (Q01726 whole entry): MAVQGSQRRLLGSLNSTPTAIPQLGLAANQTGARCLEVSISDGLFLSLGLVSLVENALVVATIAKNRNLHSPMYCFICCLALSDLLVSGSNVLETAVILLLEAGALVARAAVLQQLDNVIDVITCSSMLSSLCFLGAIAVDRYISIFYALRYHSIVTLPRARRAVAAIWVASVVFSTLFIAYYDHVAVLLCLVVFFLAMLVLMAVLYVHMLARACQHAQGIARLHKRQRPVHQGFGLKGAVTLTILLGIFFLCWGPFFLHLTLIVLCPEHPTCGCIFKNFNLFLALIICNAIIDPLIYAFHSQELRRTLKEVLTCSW
Experiment: radioligand competition, displacement of [125I]NDP-alpha-MSH from human MC1R (CHO-K1), Example 7

| Binder | IC50 |
| --- | --- |
| B1 | > 500 nM |
| B2 | > 500 nM |
